Here are results for one molecule from PMC12174348 (Nature Communications, 2025).

The target of this experiment is human NMDAR (GluN1 and GluN2B subunits) on HEK293 cells (Homo sapiens, UniProt Q05586;Q13224). In words: cell-based or functional assay.

B1: reference pathogenic anti-NMDAR autoantibody 502 Ab (antibody, V domains shown)
VH: QVQLQESGPGLVKPSQTLSLTCSVTGYSITSDYYWHWIRQPPGKGLEWIAYIRYDGRNDSNPSLKNRVTISRDTSKNQFSLKLSSVTAADTAVYYCAREDYASSSFDYWGQGTLVTVSS
VL: DIQMTQSPSSLSASVGDRVTITCRPSENIYSNLAWYQQKPGKAPKLLVYAATNLADGVPSRFSGSGSGTDYTLTISSLQPEDIATYYCQHFWDSPPTFGQGTKLEIK
Take B1: the “in vitro pathogenicity (NMDAR internalization) of 502 Ab, EC50; the sentence may also mean its binding” value came out at 0.021 µg/mL.
